We go through 1 molecule from paper PMC11617691, “‘GGFGGQ’ repeats in Hfq of Acinetobacter baumannii are essential for nutrient utilization and virulence”.

The target in one series is T1, Hfq66 (Acinetobacter baumannii, UniProt V5VC31 1-66).
T1 sequence: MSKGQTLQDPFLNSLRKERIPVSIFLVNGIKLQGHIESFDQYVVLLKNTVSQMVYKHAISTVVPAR
The experiment in a line: fluorescence anisotropy; higher affinity (lower Kd) than WT; Kd printed only in figure; TNK buffer: 10 mM Tris-HCl pH 7.5, 50 mM NaCl, 50 mM KCl; 50 nM D16-FAM; 30 °C; 100 µl. As to conditions: protein: recombinant; tags: none (tag-free); chain copies: 6; label: 5'-FAM. In general terms: Polarisation of emitted light reports the rotation of a fluorescent probe.

For a further series, the target named is T2, Hfq WT (Acinetobacter baumannii, UniProt V5VC31 1-168).
T2 sequence: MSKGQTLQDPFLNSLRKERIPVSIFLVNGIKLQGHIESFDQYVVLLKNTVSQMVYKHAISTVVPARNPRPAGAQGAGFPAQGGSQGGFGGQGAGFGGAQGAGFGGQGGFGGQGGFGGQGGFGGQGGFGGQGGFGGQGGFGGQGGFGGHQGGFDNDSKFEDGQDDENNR
The experiment in a line: fluorescence anisotropy; Kd printed only in figure; TNK buffer: 10 mM Tris-HCl pH 7.5, 50 mM NaCl, 50 mM KCl; 50 nM D16-FAM; 30 °C; 100 µl. As to conditions: protein: recombinant; tags: none (tag-free, stop codon in pET-28); chain copies: 6; label: 5'-FAM.

With CGAAUUUUUUAAGUGC (ssRNA) [D16-FAM], the binding result with Hfq66 and in the series with Hfq WT was “binds” throughout.
